Assay [1] deals with T1, bovine serum albumin (bovine, UniProt P02769 25-607).
T1 construct: Negative control antigen in the non-specific reactivity ELISA; also called BSA; BSA (1%)
Put plainly: ELISA, phage antibody on coated 1% BSA, anti-M13 peroxidase. The method, then:
(§1) To test for non-specific reactivity against non-bacterial antigens an ELISA assay was used. The complex antigens 5% FBS, 2% ELK and 1% BSA were coated overnight to Maxisorp™ ELISA plates. Selected single-chain phage antibodies were incubated for 15 minutes in an equal volume of PBS containing 1% BSA to obtain blocked phage antibodies. The plates were emptied, and the blocked single-chain phage antibodies were added to the wells. Incubation was allowed to proceed for two hours at room temperature, the plates were washed in PBS containing 0.1% v/v Tween-20 and bound phage antibodies were detected by means of OD 492 nm measurement using an anti-M13 antibody conjugated to peroxidase. As a control, the procedure was performed simultaneously without single-chain phage antibody, with a negative control single-chain phage antibody directed against West Nile virus envelope protein (SC04-374).

Assay [2] concerns the target T1, bovine serum albumin. Put plainly: ELISA, phage antibody on coated 1% BSA, anti-M13 peroxidase, OD 492 nm. The method, then:
as §1

T1 sequence (P02769 25-607 limits assumed): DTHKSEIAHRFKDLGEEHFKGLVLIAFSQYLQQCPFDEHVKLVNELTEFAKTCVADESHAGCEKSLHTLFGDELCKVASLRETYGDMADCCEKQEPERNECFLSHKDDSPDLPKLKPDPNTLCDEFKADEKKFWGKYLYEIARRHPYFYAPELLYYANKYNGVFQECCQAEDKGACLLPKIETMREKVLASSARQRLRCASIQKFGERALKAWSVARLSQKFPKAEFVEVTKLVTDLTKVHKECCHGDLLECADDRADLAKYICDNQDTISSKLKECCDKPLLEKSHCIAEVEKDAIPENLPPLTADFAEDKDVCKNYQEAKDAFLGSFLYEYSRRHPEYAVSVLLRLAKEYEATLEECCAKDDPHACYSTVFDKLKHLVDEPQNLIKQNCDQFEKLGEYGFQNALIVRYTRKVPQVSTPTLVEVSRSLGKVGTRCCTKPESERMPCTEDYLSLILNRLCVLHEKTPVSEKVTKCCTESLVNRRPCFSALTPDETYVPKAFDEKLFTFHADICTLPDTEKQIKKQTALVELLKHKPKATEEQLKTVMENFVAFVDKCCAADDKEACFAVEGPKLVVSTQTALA

B1: single-chain phage antibody SC05-133 (scFv)
scFv: EVQLVETGGGLVKPGGSLRLSCSASRFSFRDYYMTWIRQAPGKGPEWVSHISGSGSTIYYADSVRGRFTISRDNAKSSLYLQMDSLQADDTAVYYCARGGRATSYYWVHWGPGTLVTVSSGTGGSGGTGSGTGGSTEIVLTQSPATLSLSPGERATLSCRASQSVSGYLGWYQQKPGQAPRLLIYGASSRATGIPDRFSGSGSGTDFTLTISRLEPEDFAVYYCQQYGSSPLTFGGGTKLEIKR
notes: also called scFv SC05-133
B1: the “ELISA (OD492 nm)” value in the assay with bovine serum albumin [1] was determined as 0.04 OD492 nm. The binding result with bovine serum albumin [2] is on record as “no binding”.

B2: single-chain phage antibody SC02-430 (scFv)
scFv: QVQLQESGPGLVKPSQTLSLTCTVSGGSISSGGYYWSWIRQPPGKGLEWIGYIYYSGSTYYNSSLKSRVTISVDTSKNQFSLKLSSVTAADTAVYYCAKTVMNSFFDWGQGTLVTVSSGGGGSGGGGSGGGGSEIELTQPPSVSGSPGQSITISCTGTSSDVGSYNLVSWYQQHPGKAPKLMIYEVSKRPSGVSNRFSGSKSGNTASLTISGLQAEDEADYYCCSYAGSSWVFGGGTKLTVL
notes: Selected from the semi-synthetic library JK1994 on S. aureus strain Cowan; also called scFv SC02-430
For the molecule B2, the “ELISA (OD492 nm)” value in the assay with bovine serum albumin [1] is 0.04 OD492 nm. The binding result in the assay with bovine serum albumin [2] is given as “no binding”.

The values are drawn from patent publication US20090104204A1 (CRUCELL HOLLAND B V, published 2009).
